Assay results published in article PMC4926069.

Biological target: Angiotensin I-converting enzyme (ACE, EC 3.4.15.1, from rabbit lung) (rabbit) (UniProt P12822)
Sequence of UniProt P12822 (P12822 34-1310): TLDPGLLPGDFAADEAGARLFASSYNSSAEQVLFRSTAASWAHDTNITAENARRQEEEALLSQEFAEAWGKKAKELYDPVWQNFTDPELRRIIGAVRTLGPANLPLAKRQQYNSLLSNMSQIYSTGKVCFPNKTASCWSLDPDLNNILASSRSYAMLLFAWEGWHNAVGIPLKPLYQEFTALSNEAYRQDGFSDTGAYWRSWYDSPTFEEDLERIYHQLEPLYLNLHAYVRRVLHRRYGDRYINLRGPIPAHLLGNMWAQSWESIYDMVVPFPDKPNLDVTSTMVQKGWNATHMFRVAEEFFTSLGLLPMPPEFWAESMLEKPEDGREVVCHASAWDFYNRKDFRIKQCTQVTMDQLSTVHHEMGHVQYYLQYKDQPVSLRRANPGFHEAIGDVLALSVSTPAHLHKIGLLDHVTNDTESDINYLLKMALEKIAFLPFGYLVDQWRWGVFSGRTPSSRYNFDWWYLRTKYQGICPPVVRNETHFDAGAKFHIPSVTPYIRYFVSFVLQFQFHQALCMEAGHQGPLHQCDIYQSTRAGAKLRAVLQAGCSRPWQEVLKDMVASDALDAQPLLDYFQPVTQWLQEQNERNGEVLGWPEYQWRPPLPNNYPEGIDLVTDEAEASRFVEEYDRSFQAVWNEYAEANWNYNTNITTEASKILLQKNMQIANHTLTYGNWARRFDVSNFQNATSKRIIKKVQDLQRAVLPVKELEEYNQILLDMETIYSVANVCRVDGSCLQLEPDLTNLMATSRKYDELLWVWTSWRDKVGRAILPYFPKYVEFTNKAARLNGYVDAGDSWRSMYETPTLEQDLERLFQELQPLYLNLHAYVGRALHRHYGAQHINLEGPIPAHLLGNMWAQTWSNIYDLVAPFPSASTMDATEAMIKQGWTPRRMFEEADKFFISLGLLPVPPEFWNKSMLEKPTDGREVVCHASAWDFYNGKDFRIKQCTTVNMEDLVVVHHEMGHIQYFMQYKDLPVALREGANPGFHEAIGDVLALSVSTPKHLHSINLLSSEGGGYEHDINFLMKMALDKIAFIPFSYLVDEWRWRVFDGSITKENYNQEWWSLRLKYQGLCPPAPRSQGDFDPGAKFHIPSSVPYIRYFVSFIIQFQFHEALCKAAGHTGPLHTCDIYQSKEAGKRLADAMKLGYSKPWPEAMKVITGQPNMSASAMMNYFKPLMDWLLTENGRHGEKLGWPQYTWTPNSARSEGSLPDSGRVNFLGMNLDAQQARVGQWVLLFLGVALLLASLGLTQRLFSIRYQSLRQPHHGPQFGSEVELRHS

Substance: Val-Gln-Tyr (VQY) (peptide)
- IC50 of inhibition of ACE activity (HHL as substrate, hippuric acid measured by RP-HPLC; 0.25–100 μM peptide, four-parameter logistic fit): 9.8 μM
